Experiment: Poly(ADP-ribose) polymerase activity assay (32P-NAD+, SDS-PAGE, autoradiography)
Type: biochemical
Conditions: 250 ng protein, 10 min at room temperature, 2.5 μM unlabeled NAD+
Procedure: For poly(ADP-ribose) polymerase activity assays, reagents were obtained from Sigma unless otherwise indicated. PARP1A/TANK2B (250 ng) protein was incubated for 10 min at room temperature in Assay buffer (total volume of 20 μL) [100 mM Tris-HCl, pH 8.0, 10 mM MgCl2, 10% glycerol, 1.5 mM DTT (Boehringer Mannheim/Roche Molecular Biochemicals), 2.5 μM unlabeled NAD^+, 16.7 μg/mL E. coli Strain B DNA, and 0.33 μCi γ-[^32P]-NAD^+ (NEN, Boston, Mass.). Reactions were stopped by boiling in SDS running buffer and separated by SDS-polyacrylamide gel electrophoresis (SDS-PAGE). Autoradiography was used to visualize labeled protein. Addition of poly(ADP-ribose) polymers to protein substrate results in an increase in molecular weight of the protein, and consequently causes the protein to run higher on SDS PAGE. Also, the level of poly(ADP-ribose) polymers added to the protein substrate can vary with each single protein molecule, resulting in labeled proteins with different molecular weights, which appears on the autoradiography film as a ladder or smear [for example, see Smith et al. Science 282:2484-7 (1998)]. […] The PARP1A/TANK2B poly(ADP-ribose) polymerase reaction produced a ladder of labeled protein from approximately 136 kDa to 250 kDa.

For “PARP1A/TANK2B: Fusion protein containing aa 1-662 of PARP1 fused upstream of aa 996-1385 of TANK2 (SEQ ID NO:178)”, the “intrinsic poly(ADP-ribose) polymerase activity” value was “possessed intrinsic poly(ADP-ribose) polymerase activity”.

From US20030190739A1, “Tankyrase2 materials and methods” (priority 1999, published 2003)
